Five molecules from patent US20220251204A1 (AstraZeneca / MedImmune, published 2022) can be followed below.

Assay [1] deals with T1, CTLA-4-Fc (human recombinant protein, R&D Systems) (human, UniProt P16410 37-162).
T1 construct: also called CTLA-4-Fc antigen; not shown: Fc part of the bought fusion
T1 sequence: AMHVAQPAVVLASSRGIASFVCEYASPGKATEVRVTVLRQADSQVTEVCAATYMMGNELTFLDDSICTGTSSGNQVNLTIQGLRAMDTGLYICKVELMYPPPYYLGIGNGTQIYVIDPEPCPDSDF
As to the kind of experiment: Octet, same tip after PDL1-His and bispecific, then CTLA-4-Fc (100 nM per paragraph 296): concurrent binding.

In assay [2] the target is T2, human OX40 expressed on cells (human, UniProt P43489 29-277).
T2 sequence: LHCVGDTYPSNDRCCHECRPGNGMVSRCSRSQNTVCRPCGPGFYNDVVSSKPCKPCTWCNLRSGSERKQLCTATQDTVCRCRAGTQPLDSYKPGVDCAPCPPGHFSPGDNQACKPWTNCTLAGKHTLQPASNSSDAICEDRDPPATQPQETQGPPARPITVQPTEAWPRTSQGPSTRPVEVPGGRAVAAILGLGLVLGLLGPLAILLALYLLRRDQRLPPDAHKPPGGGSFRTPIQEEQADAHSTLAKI
The assay can be described thus: cell-based or functional assay.

Assay [3] has as its target T3, human PD-1 expressed on cells (human, UniProt Q15116 25-288). As to the kind of experiment: cell-based or functional assay.
In assay [4] the target is T4, human CTLA-4 expressed on cells (human, UniProt P16410 36-223).
T4 sequence: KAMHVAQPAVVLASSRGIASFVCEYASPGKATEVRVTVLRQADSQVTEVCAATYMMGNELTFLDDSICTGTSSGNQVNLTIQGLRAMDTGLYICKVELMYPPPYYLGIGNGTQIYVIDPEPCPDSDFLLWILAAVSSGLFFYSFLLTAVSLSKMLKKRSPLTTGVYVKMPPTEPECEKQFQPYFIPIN
The assay can be described thus: cell-based or functional assay.

In assay [5] the target is T3, human PD-1 expressed on cells. The assay can be described thus: flow cytometry, HumanPD1 CHO cells, x axis hIgG1TM mAb (nM). (A flow cytometer gives signals particle by particle.)
Assay [6] deals with T5, human PD-1 antigen (soluble) (human, UniProt Q15116 25-170).
T5 construct: also called hu PD1; Biotinylated human PD-1
The assay can be described thus: SPR, BIAcore T200; antibody captured on mouse anti-huIgG-Fab, antigen injected. On the technique in general: SPR reads the build-up and loss of mass on a sensor chip optically.

Another assay has as its target T6, mouse PD-1 (mouse, UniProt Q02242 25-167).
T6 construct: also called mu PD1
T6 sequence (looked up): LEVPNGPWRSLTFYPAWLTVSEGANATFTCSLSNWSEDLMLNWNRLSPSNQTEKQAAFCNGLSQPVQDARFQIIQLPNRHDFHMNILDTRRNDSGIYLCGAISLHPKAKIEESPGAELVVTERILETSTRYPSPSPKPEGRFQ
The assay is described as above.

The target of a further assay is T7, cynomolgus PD-1 (cynomolgus, UniProt B0LAJ3 25-170).
T7 construct: also called cyno PD1
The description is as above.

The target in assay [7] is T3, human PD-1 expressed on cells. As to the kind of experiment: flow cytometry receptor occupancy, CHO cells expressing PD-1:CTLA-4 (40:1), combination of the anti-PD-1 and anti-CTLA-4 mAbs; free PD-1 detected with labeled anti-PD-1 mAb; the light-triangle curve crosses 50 % at about 6 to 7 nM.
Assay [8] shares this target. The assay can be described thus: flow cytometry receptor occupancy, CHO cells expressing PD-1:CTLA-4 (40:1); free PD-1 detected with labeled anti-PD-1 mAb.
Assay [9] has the same target. The assay can be described thus: flow cytometry, IgG binding to cultured T cells stimulated with anti-CD3+anti-CD28, CD4+ gate.
The target is the same in assay [10]. The assay can be described thus: flow cytometry, CHO cells expressing PD-1:CTLA-4 (10:1).
Assay [11] shares this target. As to the kind of experiment: flow cytometry receptor occupancy, CHO cells expressing PD-1:CTLA-4 (10:1); free PD-1 detected with labeled anti-PD-1 mAb.

T3 sequence (Q15116 25-288 limits assumed): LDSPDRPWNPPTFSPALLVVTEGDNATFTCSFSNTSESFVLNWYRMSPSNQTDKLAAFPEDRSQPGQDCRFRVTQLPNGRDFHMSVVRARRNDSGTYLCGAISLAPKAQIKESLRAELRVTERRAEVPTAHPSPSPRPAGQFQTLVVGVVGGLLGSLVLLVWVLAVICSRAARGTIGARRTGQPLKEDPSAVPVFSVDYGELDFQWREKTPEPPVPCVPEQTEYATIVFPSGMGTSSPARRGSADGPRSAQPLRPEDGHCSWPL
T5 sequence (Q15116 25-170 limits assumed): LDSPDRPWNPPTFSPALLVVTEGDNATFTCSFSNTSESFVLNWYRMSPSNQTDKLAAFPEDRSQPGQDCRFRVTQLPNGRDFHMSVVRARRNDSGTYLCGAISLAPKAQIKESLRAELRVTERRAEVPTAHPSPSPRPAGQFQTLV
T7 sequence (B0LAJ3 entry or part of it limits assumed): as the sequence (Q15116 25-170 limits assumed) above, with D2E, P10A, V19L, T35A, Q75R, T144A counted along it

B1: Bis5 PD-L1/CTLA-4 (bispecific antibody, human IgG4 S228P, kappa)
heavy: EVQLVESGGGLVQPGGSLRLSCAASGFTFSRYWMSWVRQAPGKGLEWVANIKQDGSEKYYVDSVKGRFTISRDNAKNSLYLQMNSLRAEDTAVYYCAREGGWFGELAFDYWGQGTLVTVSSASTKGPSVFPLAPCSRSTSESTAALGCLVKDYFPEPVTVSWNSGALTSGVHTFPAVLQSSGLYSLSSVVTVPSSSLGTKTYTCNVDHKPSNTKVDKRVESKYGPPCPPCPAPEFLGGPSVFLFPPKPKDTLMISRTPEVTCVVVDVSQEDPEVQFNWYVDGVEVHNAKTKPREEQFNSTYRVVSVLTVLHQDWLNGKEYKCKVSNKGLPSSIEKTISKAKGQPREPQVYTLPPSQEEMTKNQVSLTCLVKGFYPSDIAVEWESNGGGGSGGGGSDIQMTQSPSSLSASVGDRVTITCRASQSINSYLDWYQQKPGKAPKLLIYAASSLQSGVPSRFSGSGSGTDFTLTISSLQPEDFATYYCQQYYSTPFTFGCGTKVEIKGGGGSGGGGSGGGGSGGGGSQVQLVESGGGVVQPGRSLRLSCAASGFTFSSYGMHWVRQAPGKCLEWVAVIWYDGSNKYYADSVKGRFTISRDNSKNTLYLQMNSLRAEDTAVYYCARDPRGATLYYYYYGMDVWGQGTTVTVSSGGGGSGGGGSGQPENNYKTTPPVLDSDGSFFLYSRLTVDKSRWQEGNVFSCSVMHEALHNHYTQKSLSLSLGK
light: EIVLTQSPGTLSLSPGERATLSCRASQRVSSSYLAWYQQKPGQAPRLLIYDASSRATGIPDRFSGSGSGTDFTLTISRLEPEDFAVYYCQQYGSLPWTFGQGTKVEIKRTVAAPSVFIFPPSDEQLKSGTASVVCLLNNFYPREAKVQWKVDNALQSGNSQESVTEQDSKDSTYSLSSTLTLSKADYEKHKVYACEVTHQGLSSPVTKSFNRGEC
For B1, the binding result in assay [1] was “binds”.

B2: PD-1(LO115)/OX40 BiS2 mAb (bispecific antibody, human IgG4 S228P, kappa)
heavy: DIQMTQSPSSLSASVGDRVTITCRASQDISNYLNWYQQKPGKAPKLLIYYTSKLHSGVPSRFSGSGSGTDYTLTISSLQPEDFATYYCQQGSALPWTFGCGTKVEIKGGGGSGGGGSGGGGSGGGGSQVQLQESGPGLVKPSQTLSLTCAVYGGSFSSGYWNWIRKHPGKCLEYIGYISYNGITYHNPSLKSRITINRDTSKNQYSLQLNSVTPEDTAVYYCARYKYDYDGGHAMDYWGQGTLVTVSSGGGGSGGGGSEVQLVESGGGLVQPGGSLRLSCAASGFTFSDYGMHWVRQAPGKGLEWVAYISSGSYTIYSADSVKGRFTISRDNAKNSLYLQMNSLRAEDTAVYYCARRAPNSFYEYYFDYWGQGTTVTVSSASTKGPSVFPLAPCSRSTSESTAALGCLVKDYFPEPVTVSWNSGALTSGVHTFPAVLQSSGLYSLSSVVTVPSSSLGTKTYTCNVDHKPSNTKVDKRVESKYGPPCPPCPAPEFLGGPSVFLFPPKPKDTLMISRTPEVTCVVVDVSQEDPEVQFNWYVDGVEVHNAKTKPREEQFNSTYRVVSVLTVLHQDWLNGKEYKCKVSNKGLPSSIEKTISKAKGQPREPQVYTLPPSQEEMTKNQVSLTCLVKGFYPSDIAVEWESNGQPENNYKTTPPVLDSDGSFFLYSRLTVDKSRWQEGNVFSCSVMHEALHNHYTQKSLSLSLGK
light: QIVLTQSPATLSLSPGERATLSCSASSKHTNLYWSRHMYWYQQKPGQAPRLLIYLTSNRATGIPARFSGSGSGTDFTLTISSLEPEDFAVYYCQQWSSNPFTFGQGTKLEIKRTVAAPSVFIFPPSDEQLKSGTASVVCLLNNFYPREAKVQWKVDNALQSGNSQESVTEQDSKDSTYSLSSTLTLSKADYEKHKVYACEVTHQGLSSPVTKSFNRGEC
For the molecule B2, the “OX40 reporter assay, EC50 (relative light units)” value in assay [2] was about 2 nM. Moreover, the “PD-1/PD-L1 reporter assay, EC50 (relative light units)” value in assay [3] is about 1 nM.

B3: Bis5 PD-1/CTLA-4 (bispecific antibody, human IgG4 S228P, kappa)
heavy: EVQLVESGGGLVQPGGSLRLSCAASGFTFSDYGMHWVRQAPGKGLEWVAYISSGSYTIYSADSVKGRFTISRDNAKNSLYLQMNSLRAEDTAVYYCARRAPNSFYEYYFDYWGQGTTVTVSSASTKGPSVFPLAPCSRSTSESTAALGCLVKDYFPEPVTVSWNSGALTSGVHTFPAVLQSSGLYSLSSVVTVPSSSLGTKTYTCNVDHKPSNTKVDKRVESKYGPPCPPCPAPEFLGGPSVFLFPPKPKDTLMISRTPEVTCVVVDVSQEDPEVQFNWYVDGVEVHNAKTKPREEQFNSTYRVVSVLTVLHQDWLNGKEYKCKVSNKGLPSSIEKTISKAKGQPREPQVYTLPPSQEEMTKNQVSLTCLVKGFYPSDIAVEWESNGGGGSGGGGSDIQMTQSPSSLSASVGDRVTITCRASQSINSYLDWYQQKPGKAPKLLIYAASSLQSGVPSRFSGSGSGTDFTLTISSLQPEDFATYYCQQYYSTPFTFGCGTKVEIKGGGGSGGGGSGGGGSGGGGSQVQLVESGGGVVQPGRSLRLSCAASGFTFSSYGMHWVRQAPGKCLEWVAVIWYDGSNKYYADSVKGRFTISRDNSKNTLYLQMNSLRAEDTAVYYCARDPRGATLYYYYYGMDVWGQGTTVTVSSGGGGSGGGGSGQPENNYKTTPPVLDSDGSFFLYSRLTVDKSRWQEGNVFSCSVMHEALHNHYTQKSLSLSLGK
light: QIVLTQSPATLSLSPGERATLSCSASSKHTNLYWSRHMYWYQQKPGQAPRLLIYLTSNRATGIPARFSGSGSGTDFTLTISSLEPEDFAVYYCQQWSSNPFTFGQGTKLEIKRTVAAPSVFIFPPSDEQLKSGTASVVCLLNNFYPREAKVQWKVDNALQSGNSQESVTEQDSKDSTYSLSSTLTLSKADYEKHKVYACEVTHQGLSSPVTKSFNRGEC
In the case of B3, in [4], the “fold decrease in CTLA-4 reporter gene assay, potency” value was about 3 fold.

B4: BiS3 PD-1(LO115)/TIM3(O13-1) (bispecific antibody, human IgG1, kappa)
heavy: EVQLVESGGGLVQPGGSLRLSCAASGFTFSDYGMHWVRQAPGKGLEWVAYISSGSYTIYSADSVKGRFTISRDNAKNSLYLQMNSLRAEDTAVYYCARRAPNSFYEYYFDYWGQGTTVTVSSASTKGPSVFPLAPSSKSTSGGTAALGCLVKDYFPEPVTVSWNSGALTSGVHTFPAVLQSSGLYSLSSVVTVPSSSLGTQTYICNVNHKPSNTKVDKRVEPKSCDKTHTCPPCPAPEFEGGPSVFLFPPKPKDTLMISRTPEVTCVVVDVSHEDPEVKFNWYVDGVEVHNAKTKPREEQYNSTYRVVSVLTVLHQDWLNGKEYKCKVSNKALPASIEKTISKAKGQPREPQVYTLPPSREEMTKNQVSLTCLVKGFYPSDIAVEWESNGQPENNYKTTPPVLDSDGSFFLYSKLTVDKSRWQQGNVFSCSVMHEALHNHYTQKSLSLSPGKGGGGSGGGGSEVQLLESGGGLVQPGGSLRLSCAASGFTFSSYAMSWVRQAPGKCLEWVSAISGSGGSTYYADSVKGRFTISRDNSKNTLYLQMNSLRAEDTAVYYCARGSYGTYYGNYFEYWGQGTLVTVSSGGGGSGGGGSGGGGSGGGGSSYVLTQPPSVSVAPGKTARITCGGDNIGGKSVHWYQQKPGQAPVLVIYYDSDRPSGIPERFSGSNSGNTATLTISRVEAGDEADYYCQVLDRRSDHFLFGCGTKLTVL
light: QIVLTQSPATLSLSPGERATLSCSASSKHTNLYWSRHMYWYQQKPGQAPRLLIYLTSNRATGIPARFSGSGSGTDFTLTISSLEPEDFAVYYCQQWSSNPFTFGQGTKLEIKRTVAAPSVFIFPPSDEQLKSGTASVVCLLNNFYPREAKVQWKVDNALQSGNSQESVTEQDSKDSTYSLSSTLTLSKADYEKHKVYACEVTHQGLSSPVTKSFNRGEC
notes: also called PD-1/TIM3 BiS3
The EC50 (read off the curve) is the concentration needed to bring the measured effect to its halfway point. Read a high EC50 (read off the curve) as a need for much substance. For the molecule B4, the “EC50 (read off the curve)” value in assay [5] is about 4 nM.

B5: Anti-PD-1 (LO115) IgG (antibody, V domains shown)
VH: EVQLVESGGGLVQPGGSLRLSCAASGFTFSDYGMHWVRQAPGKGLEWVAYISSGSYTIYSADSVKGRFTISRDNAKNSLYLQMNSLRAEDTAVYYCARRAPNSFYEYYFDYWGQGTTVTVSS
VL: QIVLTQSPATLSLSPGERATLSCSASSKHTNLYWSRHMYWYQQKPGQAPRLLIYLTSNRATGIPARFSGSGSGTDFTLTISSLEPEDFAVYYCQQWSSNPFTFGQGTKLEIK
notes: also called anti-PD-1 parental monoclonal antibody
For orientation: Kd means a measure of binding affinity in units of concentration. Read a high Kd as lower affinity. For orientation: koff means a measure of how fast the partners let go of each other. A high value points to fast dissociation. The term kon denotes a measure of how fast the partners come together. Low values mean slow association, high ones fast association. As a reminder, the IC50 is the point on the concentration scale where inhibition reaches its midpoint. B5: the dissociation constant (Kd) worked out at 0.79 nM in assay [6], 447 nM in the assay with mouse PD-1 and 0.69 nM with cynomolgus PD-1. In addition, the off-rate (koff) in assay [6] was 0.000237 s⁻¹; in the assay with mouse PD-1 it was 0.0665 s⁻¹; in the assay with cynomolgus PD-1 it was 0.000238 s⁻¹. Further, the kon was 302000 M⁻¹ s⁻¹ in [6], 149000 M⁻¹ s⁻¹ with mouse PD-1 and 346000 M⁻¹ s⁻¹ in the assay with cynomolgus PD-1. Moreover, the IC50 in assay [7] was found to be 6.4 nM; in [8], 5.5 nM; in assay [11], 3.9 nM. In addition, the entries for the “EC50 (read off the curve)” value in [9] and in assay [10] were about 1 nM and about 2 nM, respectively.
